These results are taken from patent US11723946B2, “Methods for regulating transcription of multiple genes and expression of multiple targets” (CHINA MEDICAL UNIVERSITY, priority 2014, dated 2023).

Assay [1] concerns 4-hydroxynonenal, malondialdehyde. The experiment in a line: IHC of lipid oxidation products in hepatic tissue, high fat diet mice. Format: in vivo. The note with it: 10 mmol/kg peritoneal injection twice weekly, 4 weeks, group 3 vs group 2. The protocol:
(§1) 30 wild-type FVB mice were randomly divided into three groups, wherein the mice of the group 1 were the blank group that were fed with normal condition. The mice of the control group (the group 2) and the experimental group (the group 3) were fed with high fat diet. […] The mice in the group 2 and the group 3 were peritoneally injected with 100 μl of PBS.
(§2) After the administration, livers in the mice of the each group were collected for the histology sections. The hepatic histology of livers in the mice of the each group was […] for H&E staining and oil red-O staining to examined the lipid accumulation in liver, respectively. Furthermore, the product of lipid oxidation in hepatocytes was examined by IHC staining described in example 3 with antibodies against 4-hydroxynonenal ([…]) or malondialdehyde (MDA) on the hepatic tissues of the each group.

Assay [2] can be described thus: Hepatic histology (H&E, oil red-O) in high fat diet mice. Conditions: 10 mmol/kg peritoneal injection twice weekly, 4 weeks, group 3 vs group 2. Format: in vivo. The protocol: as §1, §2

B1: present polypeptide: polypeptide comprising the amino acid sequence of SEQ ID No. 1; made by peptide synthesis, recombinant expression or extraction from Momordica charantia (peptide, listed as Artificial synthsis)
chain: SRCQGKSSWPQLVGSTGAAAKAWIERENPRVRAVIIKVGSGATKDFRCDRVRVWVTERGIVARPPTIG
Take B1: the “products of lipid oxidation (HNE, MDA) in hepatic tissue” value in assay [1] is recorded as “obviously decreased”. Besides, the “lipid accumulation in the liver” value in assay [2] is “less lipid accumulation”.
